Test results published in patent publication US20230088269A1.

Target: recombinant human IL-22R (R&D Systems / Biotechne 2770-LR) (human) (UniProt Q8N6P7)
Test: SPR (Biacore), purified Fab

recombinant human IL-22R (R&D Systems / Biotechne 2770-LR) (human), sequence (Q8N6P7 16-228 limits assumed): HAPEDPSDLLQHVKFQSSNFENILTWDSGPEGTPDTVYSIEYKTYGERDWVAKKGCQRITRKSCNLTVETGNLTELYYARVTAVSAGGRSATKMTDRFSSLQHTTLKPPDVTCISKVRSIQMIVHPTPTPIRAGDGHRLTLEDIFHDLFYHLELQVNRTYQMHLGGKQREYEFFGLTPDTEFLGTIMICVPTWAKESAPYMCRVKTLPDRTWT

- koff: 0.00035 s⁻¹
B1: 170B2 Fab (Fab, from another filing, V domains shown)
VH: EVQLVESGGGLVQPGGSLRLSCAASGFTFSSSWMYWVRQAPGKGLEFVSVINTRSGITHYVESVKGRFTISTDNAKNTLFLQMNSLKSEDTAVYYCATRIQGLIDYWGQGTQVTVSS
VL: DIVMTQSPSSLSVSLGDRVTITCQASQSIGSVNALAWYQQKPGQSLKLLIHGASRLQTGVPSRFSGSGSGTSFTLAISGVEAEDLATYYCLQDYAWPLTFGQGTKVELK
